T1: FGF14 (1b isoform), wild type, fused to split firefly luciferase fragments (UniProt Q92915)
T1 sequence: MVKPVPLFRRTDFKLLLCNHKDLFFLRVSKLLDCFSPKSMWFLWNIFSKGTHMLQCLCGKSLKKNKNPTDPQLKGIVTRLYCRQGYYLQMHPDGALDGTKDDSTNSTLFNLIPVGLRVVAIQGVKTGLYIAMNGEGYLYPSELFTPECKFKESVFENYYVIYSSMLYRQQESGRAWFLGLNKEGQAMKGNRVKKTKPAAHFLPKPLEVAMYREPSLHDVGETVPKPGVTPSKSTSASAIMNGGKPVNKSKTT


Experiments:
Test in all cases: split reporter
[1] = molecular target: T1, FGF14 (1b isoform), wild type, fused to split firefly luciferase fragments
[2] = molecular target: FGF14^Y153N/V155N (1b isoform) fused to split firefly luciferase fragments
[3] = molecular target: T1, FGF14 (1b isoform), wild type, fused to split firefly luciferase fragments; remark: listed apart in the source
[4] = molecular target: FGF14^Y153N/V155N (1b isoform) fused to split firefly luciferase fragments; details: split reporter (BiFC, NanoBiT)

| Molecule | % maximal luminescence against the FGF14:FGF14 dimer [1] | % maximal luminescence against the FGF14:FGF14 dimer [2] | % maximal luminescence of CLuc-FGF14:FGF14-NLuc left with 10 uM peptide [3] | % maximal luminescence of the FGF14^Y153N/V155N:FGF14 heterodimer left with FLPK [4] |
| --- | --- | --- | --- | --- |
| FGF14^Y153N/V155N (1b isoform) fused to split firefly luciferase fragments (natural protein) | 109% | 136% |  |  |
| Ac-FLPK-NH2 [Ac-FLPK-NH2] |  |  | 75% | 90.8 ± 5.1% |

— PMC4809639
